Source: patent US20090197801A1

Molecular target: recombinant erythropoietin receptor (EPOR-Fc)
Test: SPR; Epo 3 peptide ionically bound to the chip, soluble recombinant EPOR-Fc as analyte; three independent experiments

Sequence of recombinant erythropoietin receptor (EPOR-Fc) (P19235 25-250): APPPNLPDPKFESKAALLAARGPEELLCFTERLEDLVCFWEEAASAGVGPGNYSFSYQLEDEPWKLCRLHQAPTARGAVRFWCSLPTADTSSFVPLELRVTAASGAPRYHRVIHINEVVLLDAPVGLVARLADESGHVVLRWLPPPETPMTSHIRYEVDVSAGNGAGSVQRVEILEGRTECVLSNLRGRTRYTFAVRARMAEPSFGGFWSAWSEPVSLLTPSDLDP

- Kd: 4.48 nM
Binder: QLHVDKAVSGLRSLTTLLRA [Epo3 peptide (Epo-peptide 3)]
